The results in this text go back to patent publication US20160024208A1 (Regeneron, published 2016).

Usually Kd stands for the equilibrium constant for the complex coming apart. Low readings indicate a tighter complex, high ones a looser complex.

Residue numbers refer to the chain shown, from its start.

In assay [1] the target is T1, full-length human Nav1.7 fused at its N-terminus to GFP, expressed in HEK293 cells (human, UniProt Q15858 1-1988).
T1 construct: Voltage-gated sodium channel alpha subunit; In the Western blot it stood as denatured cell lysate; also called hNav 1.7-GFP-HEK293; Nav 1.7-GFP-HEK293; not shown: green fluorescent protein (GFP) at the N-terminus
Kind of assay: flow cytometry; % stained hNav1.7-GFP-HEK293 minus parental HEK293. The essentials:
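Percent-stained values come from FACS of healthy live cells, taking transfected-cell staining minus parental HEK293 staining. Cells were exposed on ice for 20 min to 1-13 nM antibody, then 20 min to 1.7 nM fluorescent anti-human or anti-mouse Fc secondary.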
A general note: In flow cytometry, cells or beads pass a laser one at a time.

Assay [2] concerns the target T2, N-Term Biotin Nav1.7 (3-1) peptide, mulatta (mulatta (monkey), not fully specified; N-terminal biotin attached via a G4S linker).
T2 construct: Synthetic peptide; also called Mulatta Nav1.7 3-1 N-term biotin; monkey
T2 peptide: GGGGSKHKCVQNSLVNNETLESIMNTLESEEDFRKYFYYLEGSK
As to the kind of experiment: ELISA on coated peptide, antibody 1 ug/ml, OD450 grade. The essentials:
(§1)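 Binding graded from absorbance at OD450 for antibodies applied at 1 μg/ml (− below 0.2, + 0.2–1, ++ 1–2, +++ 2–4; NT not tested); antibodies were also run at 0.1 μg/mL. Biotin-peptides at 0.4 μg/mL on avidin-coated plates, other peptides at 4 μg/mL; 1 h RT binding; HRP anti-IgG/TMB detection.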
(In an ELISA, binding on a coated surface is turned into a signal by an enzyme label.)

The target in assay [3] is T3, Native Nav1.7 (3-1) peptide, rat (rat).
T3 construct: Synthetic peptide; also called Rat Nav1.7 3-1 native
T3 peptide: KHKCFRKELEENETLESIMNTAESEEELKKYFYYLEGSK
The assay is described as above. The essentials: as §1

Assay [4] deals with T4, N-Term Biotin-Nav1.7 (3-1) peptide, human (human, not fully specified; N-terminal biotin attached via a G4S linker).
T4 construct: ELISA peptide
T4 peptide: T2 peptide with V10F, Q11R, V15E
The description is as above. The essentials: as §1

Assay [5] deals with T5, C-term Biotin Nav1.7 (3-1) peptide, human (human, not fully specified; C-terminal biotin attached via a G4S linker).
T5 construct: Synthetic peptide; also called Human Nav1.7 3-1 C-term biotin
T5 peptide: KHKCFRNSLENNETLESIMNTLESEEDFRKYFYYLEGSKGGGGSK
Kind of assay: SPR, captured biotin-peptide, antibody analyte.

Assay [6] has as its target T1, full-length human Nav1.7 fused at its …. As to the kind of experiment: cell-based or functional assay.
The target in assay [7] is T6, N-Term Biotin Nav1.7 (3-1) peptide, mouse (mouse, not fully specified; N-terminal biotin attached via a G4S linker).
T6 construct: Synthetic peptide; also called Mouse Nav1.7 3-1 N-term biotin
T6 peptide: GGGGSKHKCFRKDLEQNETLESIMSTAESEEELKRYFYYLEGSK
Kind of assay: ELISA on coated peptide, antibody 1 ug/ml, OD450 grade. The essentials:
as §1

B1: H1M836N (antibody, V domains shown)
VH: QVQLVESGGGVVQPGRSLRLSCAASGFTFSSYGMHWVRQAPGKGLEWVAVISYDGNNKYYADSVKGRFTISRDNSKNTLYLQMNSLRAEDTAVYYCAKGSAGYALDYWGQGTLVTVSS
VL: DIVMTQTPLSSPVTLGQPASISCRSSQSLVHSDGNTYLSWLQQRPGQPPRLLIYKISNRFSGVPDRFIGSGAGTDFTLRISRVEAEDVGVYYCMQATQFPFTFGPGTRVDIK
Turning to B1, the “% Binding Nav1.7” value in assay [1] turned out to be 68.9%. Besides, the OD450 in assay [2] fell in the range of 2 to 4 od; in assay [3], 1 to 2 od; in assay [4] it was 2 to 4 od. In assay [5], this molecule registered a Kd of 19.2 nM. Further, the t1/2 in assay [5] was 0.0633 h.

B2: H1M852N (antibody, V domains shown)
VH: QVQLVESGGGVVQPGRSLTLSCAASGFMFNRFGMHWVRQAPGKGLDWVAVIWYDGSNKYYADSVKGRFTISRDNSKNTLYLQVNSLRAEDTAVYYCAREGTPHYYDSSGLDYWGQGTLVTVSS
VL: AIQMTQSPSSLSAYVGDRVTITCRASQDIRNDLGWYQQKPGKAPNLLIYDISSLQSGVPSRFSGSGSGTDFTLTISSLQPEDFATYYCLQDYNYPLTFGGGTKVEIK
notes: constant region may differ; also called H4H852N
Regarding B2, in assay [1], the “% Binding Nav1.7” value worked out at 68.6%. Also, in assay [5], the binding result is reported as “no binding”. In assay [6], the “Current blocking (Average % inhibition), IonWorks Quattro, 223 nM antibody” value (shortened to “Current blocking (Average % inhibition)”) is 7%.

B3: H1M879N (antibody, V domains shown)
VH: EVQLVESGGGLVKPGGSLRLSCAASGFTFSSYTIHWVRQAPGKGLEWVSSISSSSSYIYYVDSVKGRFTISRDNAKNSVYLQMNSLRAEDTAVYYCATSSITARGYFDYWGQGTLVTVSS
VL: EIVLTQSPATLSLSPGERVTLSCRASQSVSSYLAWYQQKPGQAPRLLIYDASNRATGIPARFSGSGSGTDFTLTISSLEPEDFAVYYCQQRNIWPPTFGQGTKVEIK
notes: Hybridoma-derived
As to B3, the “% Binding Nav1.7” value in assay [1] is 63%. Moreover, the OD450 in assay [2] and in assay [4] was 2 to 4 od throughout. Besides, in assay [5], the Kd came out at 0.27 nM. Moreover, the t1/2 in assay [5] amounted to 1.45 h.

B4: H1H1006B (antibody, V domains shown)
VH: EVQLVESGPGLVKSSETLSLKCTVSGGSISSSGYYWGWIRQPPGKGLEWIGSIHRSGSTFYNPSLKSRVTISVDTSKSQFSLRLTSVTAADTSVYFCGRHGRDYYYGMDVWGQGTTVTVSS
VL: DIQMTQSPSSVSASVGDRVTITCRSSQDINNWLVWYQQKPGKAPKVLIYGASRLQSGVPSRFSGSGSGTDFTLTISSLQPEDFATYYCQQANSFPLTFGGGTKVEIKR
notes: Fully human antibody; also called H4H1006B-1
Take B4: the “% Binding Nav1.7” value in assay [1] is 8.6%. In addition, the OD450 in assay [2], in assay [3], in assay [7] and in assay [4] was 2 to 4 od in each case. The molecule further returned a Kd in assay [5] of 0.239 nM. The same molecule yielded a t1/2 in assay [5] of 1.36 h. Also, the “Current blocking (Average % inhibition)” value in assay [6] turned out to be 64%.

B5: H1M797N (antibody, V domains shown)
VH: QVQLVESGGGVVQPGRSLRLSCAASGFTFSSYGMHWVRQAPGKGLEWVAVISYDGNNKHFADSVKGRFTISRDNSKNTLNLQMNSLRAEDRAVYYCARGASGFVLDIWGQGTMVTVSS
VL: DIVMTQTPLSSPVTLGQPASISCRSSQSLVRSDGNTYLSWLQQRPGQPPRLLIYKISNRFSGVPDRFSGSGAGTDFTLKISRVEAEDVGIYFCMQTTQFPFTFGPGTKVDIK
With B5, the “% Binding Nav1.7” value in assay [1] is 14.4%. Moreover, the OD450 in assay [2], in assay [3], in assay [7] and in assay [4] was 2 to 4 od throughout. In addition, binding in assay [5] was put at a Kd of 0.359 nM. Also, the t1/2 in assay [5] stood at 1.65 h. For the same molecule, the “Current blocking (Average % inhibition)” value in assay [6] was -31%.

B6: H1M801N (antibody, V domains shown)
VH: QVQVVESGGGVVQPGRSLRLSCAASGFTFSNYGMHWVRQAPGKGLEWVTVISYDGSNKNYADSVKGRFTISRDNSKNTLYLQMNSLRAEDTAMYYCARGGSGFAFDIWGQGTMVTVSS
VL: B5 VL with E86D, I90V, F92Y
notes: also called H1H801N
For the molecule B6, in assay [1], the “% Binding Nav1.7” value was determined as 49.5%. The OD450 in assay [2] is 2 to 4 od; in assay [3], 1 to 2 od; in assay [7], 1 to 2 od; in assay [4], 1 to 2 od. This molecule also came in with a Kd in assay [5] of 0.511 nM. Besides, the t1/2 in assay [5] was 1.18 h.
